The source of these data is PMC9468336, “The choanoflagellate pore-forming lectin SaroL-1 punches holes in cancer cells by targeting the tumor-related glycosphingolipid Gb3” (Communications Biology, 2022).

Data set [1] has as its system H1299 cells. Nature of the data set: Cell proliferation (MTT) assay. The class given is cell-based, human. How it is done:
(§1) The human lung epithelial cell line H1299 (American Type Culture Collection, CRL-5803) was cultured in a complete medium, consisting of Roswell Park Memorial Institute (RPMI) medium supplemented with 10% fetal calf serum (FCS) and 2 mM L-glutamine at 37 °C and 5% CO2. Cells were stimulated with different concentrations of SaroL-1 in a complete medium for indicated time points.
To investigate the cytotoxic effect of SaroL-1 on human cells, H1299 cells were treated with increasing concentrations of SaroL-1 for 24 h in a standard MTT assay. For the depletion of Gb3 from the plasma membrane, H1299 cells were treated with 2 µM PPMP for 72 h before the experiment. 3.5 × 10^4 cells per well were transferred to a 96-well plate with a U-bottom. The cells were centrifuged at 1600 × g for 3 min at RT. The cell pellet was re-suspended in 100 μL of variously concentrated protein solutions (3, 14, 27, 68, 135, 270, 680, 1360 nM) and transferred to a 96-well flat-bottomed plate. The cells were incubated for 24 h at 37 °C. Subsequently, 10 μL of MTT labelling solution (MTT Cell Proliferation Kit, Roche) was added to each well, and the cells were incubated for 4 h at 37 °C. Then, 100 μL of the solubilisation reagent was added to each well, and the plate was incubated at 37 °C overnight. The next day, the absorbance of the samples was measured at 550 nm using a BioTek microplate reader. To assess SaroL-1 cytotoxicity in the presence of the soluble sugar PNPG, 3.5 × 10^4 cells per well were transferred to a 96-well plate with a U-bottom. Variously concentrated protein solutions (3, 14, 27, 68, 135, 270, 680, 1360 nM) were preincubated with 10 mM PNPG dissolved in complete medium, for 15 min at RT. The cells were centrifuged at 1600 × g for 3 min at RT. Next, the cell pellet was re-suspended in 100 μL protein solution and transferred to a 96-well flat-bottomed plate. The cells were incubated for 24 h at 37 °C, and the MTT assay was performed as described above. The data was further analyzed using GraphPad Prism software.

A short description of data set [2]: Dextran influx into GUVs (pore formation). Conditions: for GUVs filled with dextran-AF488, average %: 3 kDa dextran; for GUVs filled with 70 kDa FITC-dextran, average %: 70 kDa dextran. The format is biochemical. An excerpt:
(§2) GUVs were composed of 1,2-dioleoyl-sn-glycero-3-phosphocholine (DOPC), cholesterol (both AvantiPolar Lipids, United States), Atto 647 N 1,2-dioleoyl-sn-glycero-3-phosphoethanolamine (DOPE; Sigma-Aldrich), and one of the following glycolipids at a molar ratio of 64.7:30:0.3:5. The glycolipids are globotriaosylceramide (Gb3, Matreya), FSL-Gb3 (Function-Spacer-Lipid with globotriaosyl saccharide), and corresponding FSL-isoGb3 (Function-Spacer-Lipid with iso-globotriaosyl saccharide) synthetized as previously described[84],[85], FSL-A(tri) (Function-Spacer-Lipid with blood group A trisaccharide; Sigma-Aldrich), FSL-B(tri) (Function-Spacer-Lipid with blood group B trisaccharide; Sigma-Aldrich) or lactosylceramide (LC, Sigma-Aldrich).
GUVs were prepared by the electroformation method as earlier described. Briefly, lipids dissolved in chloroform of a total concentration of 0.5 mg/mL were spread on indium tin oxid-covered (ITO) glass slides and dried in a vacuum for at least 1 h or overnight. Two ITO slides were assembled to create a chamber filled with sucrose solution adapted to the osmolarity of the imaging buffer of choice, either HBSS (live-cell imaging) or PBS (GUVs only imaging). Then, an alternating electrical field with a field strength of 1 V/mm was implemented for 2.5 h at RT. Later we observed the GUVs in chambers manually built as described.
Dextran Alexa Fluor 488 (Dextran-AF488) with a MW of 3 kDa (Thermo Fischer) or 70 kDa FITC-dextran (Sigma-Aldrich) was added to the observation chamber (0.02 mg/mL) in PBS buffer together with 200 nM SaroL-1. Then wt Gb3-containing GUVs (40 µL) were added for imaging and monitoring of pore-formation. Dextran-AF488 was present in the GUVs’ surrounding solution. For PNPG treatment, 200 nM of SaroL-1 was pre-incubated with 10 mM PNPG dissolved in DMSO for 15 min at RT in the observation chamber. Directly after, dextran-AF488 (0.02 mg/mL) and 40 µL wt Gb3-containing GUVs were added to the observation chamber and monitored using confocal microscopy.

The nature of data set [3]: Confocal imaging of SaroL-1 binding to DOPC GUVs without glycolipids. The following applies: 200 nM SaroL-1, DOPC GUVs without glycolipids (negative control).
Text: as §2
(§3) GUVs were prepared by the electroformation method as earlier described. Briefly, lipids dissolved in chloroform of a total concentration of 0.5 mg/mL were spread on indium tin oxid-covered (ITO) glass slides and dried in a vacuum for at least 1 h or overnight. […]
(§4) Samples of GUVs and SaroL-1 were imaged using a confocal fluorescence microscope (Nikon Eclipse Ti-E inverted microscope equipped with Nikon A1R confocal laser scanning system, 60x oil immersion objective, NA = 1.49 and four laser lines: 405 nm, 488 nm, 561 nm, and 640 nm). […]

Data set [4] is described as follows: Confocal imaging of SaroL-1 binding to Gb3 wt GUVs. Details: species or system porcine. The following applies: 200 nM fluorescent SaroL-1, Gb3 wt GUVs, compared with FSL-Gb3 GUVs.
Text: as §2, §3, §4

Data set [5] relates to H1299 cells. The data set is described as follows: Cell detachment assay. The format is cell-based, human. On the procedure: as §1
To determine the role of SaroL-1 in cell detachment, 3 × 10^5 cells per well were counted and allowed to adhere overnight in a 6-well plate. The next day, cells were incubated for 2, 4, or 8 h with two different concentrations of SaroL-1 (270 nM and 1.36 µM) diluted in a complete medium compared to a negative control. As a positive control, cells were incubated with trypsin-EDTA for 10 min at 37 °C, to induce 100% cell detachment. The number of cells in suspension at the indicated time points was quantified by analyzing the supernatant with the CytoSmart Corning cell counter. Cells were resuspended with Trypan Blue solution (Sigma-Aldrich) in a ratio 1:1 for the quantification of cellular death upon detachment.

Setting [6] is: 200 nM SaroL-1, 30 min, listed as SaroL1.
Where [7] appears, read: 200 nM SaroL-1, 120 min, listed as SaroL1.

Several values for one entry are separate records, joined by “and”; a condition that tells them apart may be missing. Equal entries are not always repeated.

For `O=[N+]([O-])c1ccc(O[C@H]2O[C@H](CO)[C@H](O)[C@H](O)[C@H]2O)cc1` [PNPG, p-nitrophenyl-α-D-galactopyranoside], the “reduction of SaroL-1-induced cell death” value in the data set with H1299 cells [1] (SaroL-1 (3-1358 nM) pre-incubated with 10 mM PNPG, 24 h) is more than 90%. Also, the “GUVs filled with dextran-AF488, average %” value was 0% in data set [2] (200 nM SaroL-1 pre-treated with 10 mM PNPG, 0 min); 0.4205% in data set [2] (200 nM SaroL-1 pre-treated with 10 mM PNPG, 60 min); 4% and 4.251% in data set [2] (200 nM SaroL-1 pre-treated with 10 mM PNPG, 120 min).

B1: SaroL-1: Recombinant pore-forming lectin of Salpingoeca rosetta (UniProt F2UID9, 329 amino acids) with β-trefoil and aerolysin-like domains (protein)
chain: MSSTFEPATDSPLPVPGVQYFLQHVQSGKYVHPHGGSDMPGNDTALVLHHGFDEKRDALRWVFVNDAENKHQLKHYSSGKFVHPKGGKVGKEATLVVHSSPGRPETMIEMVQEDGRTYLRHTDSDYYVHPHGGSPNPGDNTRLVYYSGYRPSLAFLAIPAETLFVDRIEIHQAQALESINTITSLSDEHRNDTDQPVQTSISVALEESLQDSAQLSFERCFGLKVGSEFEVGLPLVGKTKVSVQFSGSWKSSTIKGEVRTSAVKVQINEHVTIPPGKCVQIRIDTRRCTKTAPATMYLRTASGIEVQRETTVTSTYHYDQEVHVVPVTN
modifications: left off: His6, N-terminal, state not stated
notes: Recombinant pore-forming lectin of Salpingoeca rosetta (UniProt F2UID9, 329 amino acids) with β-trefoil and aerolysin-like domains
For the molecule B1, the “binding to GUVs” value in data set [3] was “No binding”; in data set [4] it was “of the same order”. Also, the “time point at which cell detachment is promoted” value with H1299 cells [5] (271 nM SaroL-1) amounted to 8 h. For the same molecule, in the data set with H1299 cells [5] (compared to PBS-treated cells), the “cell rounding and detachment (in words)” value was “dose-dependent rounding and detachment of cells”. Also, the “time point at which detachment of cells is visible” value in the data set with H1299 cells [5] (highest concentration, 1.36 µM SaroL-1) amounted to 2 h. Besides, in the data set with H1299 cells [1] (24 h, 1.36 µM SaroL-1), the “reduction of cell viability” value was ~ 87%. Moreover, in the data set with H1299 cells [1] (24 h, FCS-containing medium, read-out: concentration at which the percentage of viable cells decreased by half), the IC50 was found to be 271 nM. Further, the “cytotoxicity on Gb3-depleted cells (in words)” value with H1299 cells [1] (H1299 pre-treated with PPMP for 72 h, 24 h with SaroL-1) is reported as “remarkably reduced”. Also, the “GUVs filled with dextran-AF488, average %” value in data set [2] (200 nM SaroL-1, 0 min) is listed as 11.106%; in data set [2] (200 nM SaroL-1, 30 min), 45%; in data set [2] (setting [6]) it was 45.1678%; in data set [2] (200 nM SaroL-1, 60 min), 57.8615%; in data set [2] (200 nM SaroL-1, 120 min), 69%; in data set [2] (setting [7]), 69.3211%. Besides, the “GUVs filled with 70 kDa FITC-dextran, average %” value in data set [2] (200 nM SaroL-1, 0 min) came to 4.422%; in data set [2] (200 nM SaroL-1, 30 min) it was 17%; in data set [2] (setting [6]), 16.9551%; in data set [2] (200 nM SaroL-1, 60 min) it was 29%; in data set [2] (200 nM SaroL-1, 60 min, listed as SaroL1), 28.4248%; in data set [2] (200 nM SaroL-1, 120 min), 29%. In data set [2] (setting [7]), the “GUVs filled with 70 kDa FITC-dextran, average %” value came to 29.7507%.
